Assays:
[1] = Oxidation product of AADH clones by resting cell reaction followed by TLC analysis; type: cell-based, P. putida
Text: Enzyme A gene was originally cloned as a cosmid clone of p24D4 which has about 25 kb insert in EcoRI site of pVK100. Then, it was further subcloned to use as an Enzyme A gene cassette. The 2.7 kb EcoRV fragment which includes ORF of Enzyme A gene with about 500 bp of non-coding regions at the both ends was excised from 3.4 kb NruI fragment, which was isolated from p24D4 in M13 mp18, and was ligated to HindIII site of pUC18 with HindIII linker ([…]). The resulting plasmid was designated pSSA202. Enzyme A gene cassette (2.7 kb HindIII fragment) was then inserted at HindIII site of pVK102 to produce pSSA102R. The plasmid pSSA102R was introduced into nalidixic acid resistant P. putida [ATCC 21812] by a conjugal mating method as described in Example 1-(1). The transconjugant of P. putida carrying pSSA102R was selected on MB agar medium containing 50 μg/ml nalidixic acid and 10 μg/ml tetracycline (MNT agar medium) and subjected to a mini-resting cell reaction. […] The reaction mixture was assayed with TLC and 2KGA was identified as the product, while no 2KGA was observed by the same resting cell reaction with the host, nalidixic acid resistant P. putida [ATCC 21812].

[2] = pH stability, 3 hours at 25° C., residual activity by PMS-DCIP assay; type: physicochemical; conditions: relative to no incubation at pH 8.0
Method: Enzymes A, A′, A″ and B were incubated in buffers of various pH-values for 3 hours at 25° C. and the residual activities were assayed and expressed as relative values against that obtained by no incubation at pH 8.
Table 3 indicates the results of pH-stabilities of the enzymes. The enzyme (about 0.01 mg/ml) was incubated with 50 mM buffer containing 5% sucrose, 0.2 M NaCl, and 5 mM CaCl2 at 25° C. for 3 hours and assayed by PMS-DCIP spectrophotometric method. The buffers were Na-acetate, pH4 and 5, Tris-malate-NaOH, pH 6, 7 and 8, glycine-NaOH, pH 9 and 10. The values in the table are expressed as relative activity against that obtained by no incubation at pH 8.0.

[3] = Optimal pH, PMS-DCIP assay in buffers of various pH; type: biochemical
Method: The Enzymes A″ and B have a relatively wide pH range toward a lower pH, compared with the Enzymes A and A′.
The enzyme activity was assayed by the PMS-DCIP spectrophotometric assay using various pH buffers. The buffers were 50 mM Tris-malate-NaOH, pH 6.0, 6.5, 7.0, 7.5, 8.0 and 8.5; 50 mM glycine-NaOH, pH 9.0 and 9.5. The extinction coefficients of DCIP at pH 6.0, 6.5, 7.0, 7.5, 8.0, 8.5, 9.0 and 9.5 were taken as 10.8, 13.2, 14.5, 14.9, 15.0, 15.1, 15.1 and 15.1, respectively. […] The Enzymes A″ and B had relatively wide pH range toward lower pH, compared with the Enzymes A and A′.

[4] = Substrate specificity of purified enzymes, PMS-DCIP spectrophotometric assay; type: biochemical; conditions: A′ corrected 1.5-fold (purity about 65%)
Method: The enzymatic activity of the AADHs herein can be determined by methods known in the art, such as by photometric analysis using a spectrophotometer. In accordance with the present invention, one unit of enzyme activity was defined as the amount of enzyme which catalyzed the reduction of 1 μmole of DCIP per minute. The extinction coefficient of DCIP at pH 8.0 was taken as 15 mM^−1. In a preferred standard assay for determining the enzyme activity of the AADHs herein, a first cuvette includes a standard reaction mixture (1.0 ml) containing 0.1 mM DCIP, 1 mM PMS, 2 to 125 mM substrate, 50 mM Tris-malate-NaOH buffer (pH 8.0), and 10 μl of the enzyme solution. A second cuvette, i.e., a reference cuvette, contains all the above components except the substrate. The reference cuvette is used to standardize the background absorbance resulting from a substrate-independent (endogenous) reaction. Preferably, a double beam spectrophotometer is used to determine the activity of the enzyme in the presence of a substrate with respect to a standard reaction mixture in the absence of the substrate.
Enzyme activities of each clone (cell free extract, soluble fraction and membrane fraction) were measured by photometric analysis. The cells of each clone were inoculated in 5 ml of MB medium in a test tube and cultivated at 30° C. for 24 hours. The resulting broth was transferred into 200 ml of fresh MB medium in 500 ml flask and the flask was shaken on the rotary flask shaker at 30° C. for 24 hours. The cells were collected by centrifugation at 6,000×g for 10 minutes and washed with 40 ml of cold buffer consisting of 50 mM Tris-HCl, pH 7.5, 5 mM MgCl2 and 0.5 mM phenylmethylsulfonyl fluoride and suspended with the same buffer to prepare cell suspension of 1 g wet cells per 5 ml. The cell suspension was subjected twice to a French press cell disruptor (1,500 kg/cm^2) and the resulting homogenate was centrifuged at 6,000×g for 10 minutes to remove cell debris. Thus obtained cell free extract (CFE) was centrifuged at 100,000×g for 60 minutes. The resulting supernatant and pellet were collected as the cytosol fraction and the membrane fraction, respectively and subjected to PMS-DCIP assay as follows. The enzyme reaction mixture (1.0 ml) contained 100 μM DCIP, 1 mM PMS, 50 mM Tris malate-NaOH buffer, pH 8.0, a substrate and the enzyme (10 μl). Substrate-dependent decreasing rate of absorbance of DCIP at 600 nm was measured at 25° C. by using a Kontron spectrophotometer UVIKON 810. […] In the A-group, there were three types, A, A′ and A″ each of which was distinguished from each other by their physical map of the DNA carried on each plasmid. B- or C-group each consisted of only one type of protein derived from one region of the chromosomal DNA.

Row | Molecule | Oxidation product of D-sorbitol [1] | Oxidation product of L-sorbose [1] | Oxidation product of L-sorbosone [1] | Relative activity (pH stability) ([2]; incubated at pH 4.0, 3 hours) [%] | Relative activity (pH stability) ([2]; incubated at pH 5.0, 3 hours) [%] | Relative activity (pH stability) ([2]; incubated at pH 6.0, 3 hours) [%] | Relative activity (pH stability) ([2]; incubated at pH 7.0, 3 hours) [%] | Relative activity (pH stability) ([2]; incubated at pH 8.0, 3 hours) [%] | Relative activity (pH stability) ([2]; incubated at pH 9.0, 3 hours) [%] | Relative activity (pH stability) ([2]; incubated at pH 10.0, 3 hours) [%] | Relative activity (pH stability) ([2]; incubated at pH 11.0, 3 hours) [%] | Relative activity (optimal pH) ([3]; assay pH 6.0, pH 8.0 = 100) [%] | Relative activity (optimal pH) ([3]; assay pH 6.5, pH 8.0 = 100) [%] | Relative activity (optimal pH) ([3]; assay pH 7.0, pH 8.0 = 100) [%] | Relative activity (optimal pH) ([3]; assay pH 7.5, pH 8.0 = 100) [%] | Relative activity (optimal pH) ([3]; assay pH 8.0) [%] | Relative activity (optimal pH) ([3]; assay pH 8.5, pH 8.0 = 100) [%] | Relative activity (optimal pH) ([3]; assay pH 9.0, pH 8.0 = 100) [%] | Relative activity (optimal pH) ([3]; assay pH 9.5, pH 8.0 = 100) [%] | Substrate specificity ([4]; 2 mM L-Sorbosone) | also measured
1 | Enzyme A′: recombinant AADH of G. oxydans DSM No. 4025, amino acid sequence SEQ ID NO 6, plasmid p1E2 (protein, Gluconobacter oxydans; SIGNAL (1)..(23)) MKTSSLLVASVAALASYSSFALAQVTPVTDELLANPPAGEWISYGQNQENYRHSPLTQITTENVGQLQLVWARGMQPGKVQVTPLIHDGVMYLANPGDVIQAIDAKTGDLIWEHRRQLPNIATLNSFGEPTRGMALYGTNVYFVSWDNHLVALDTATGQVTFDVDRGQGEDMVSNSSGPIVANGVIVAGSTCQYSPFGCFVSGHDSATGEELWRNYFIPRAGEEGDETWGNDYEARWMTGVWGQITYDPVGGLVHYGSSAVGPASETQRGTTGGTMYGTNTRFAVRPETGEIVWRHQTLPRDNWDQECTFEMMVANVDVQPAADMDGVRSINPNAATGERRVLTGVPCKTGTMWQFDAETGEFLWARDTSYENIIESIDENGIVTVDESKVLTELDTPYDVCPLLLGGRDWPSAALNPDTGIYFIPLNNTCMDIEAVDQEFSSLDVYNQSLTAKMAPGKELVGRIDAIDISTGRTLWTAEREASNYAPVLSTAGGVLFNGGTDRYFRALSQETGETLWQTRLATVASGQAVSYEIDGVQYIAIGGGGTTYGSFHNRPLAEPVDSTAIGNAMYVFALPQQ | mainly D-glucose | *1Oxidation product of L-sorbose by Enzymes A, A′, A″, and [A and B] was 2KGA. | *4Oxidation product of L-sorbosone by Enzymes A, A′, A″, B, and [A and B] was 2KGA. | 0.0 | 10.0 | 82.7 | 96.9 | 100.0 | 97.3 | 85.4 | 61.3 | 2.1 | 9.3 | 22.5 | 46.8 | 100.0 | 142.7 | 2.1 | 1.8 | 5.0 units/mg of purified protein | Substrate specificity ([4]; 50 mM D-Glucose): 0.0 units/mg of purified protein; Substrate specificity ([4]; 50 mM D-Mannitol): 1.3 units/mg of purified protein; Substrate specificity ([4]; 50 mM Isopropanol): 108.9 units/mg of purified protein; Substrate specificity ([4]; 50 mM n-Propanol): 180.7 units/mg of purified protein; Substrate specificity ([4]; 125 mM D-Fructose): 2.9 units/mg of purified protein; Substrate specificity ([4]; 125 mM D-Sorbitol): 7.8 units/mg of purified protein; Substrate specificity ([4]; 125 mM L-Sorbose): 1.6 units/mg of purified protein
2 | Enzyme A: recombinant AADH of G. oxydans DSM No. 4025, amino acid sequence SEQ ID NO 5, plasmid p24D4/pSSA102R (protein, Gluconobacter oxydans; SIGNAL (1)..(23)) MKPTSLLWASAGALALLAAPAFAQVTPVTDELLANPPAGEWISYGQNQENYRHSPLTQITTENVGQLQLVWARGMQPGKVQVTPLIHDGVMYLANPGDVIQAIDAKTGDLIWEHRRQLPNIATLNSFGEPTRGMALYGTNVYFVSWDNHLVALDTATGQVTFDVDRGQGEDMVSNSSGPIVANGVIVAGSTCQYSPFGCFVSGHDSATGEELWRNYFIPRAGEEGDETWGNDYEARWMTGAWGQITYDPVTNLVHYGSTAVGPASETQRGTPGGTLYGTNTRFAVRPDTGEIVWRHQTLPRDNWDQECTFEMMVTNVDVQPSTEMEGLQSINPNAATGERRVLTGVPCKTGTMWQFDAETGEFLWARDTNYQNMIESIDENGIVTVNEDAILKELDVEYDVCPTFLGGRDWPSAALNPDSGIYFIPLNNVCYDMMAVDQEFTSMDVYNTSNVTKLPPGKDMIGRIDAIDISTGRTLWSVERAAANYSPVLSTGGGVLFNGGTDRYFRALSQETGETLWQTRLATVASGQAISYEVDGMQYVAIAGGGVSYGSGLNSALAGERVDSTAIGNAVYVFALPQ | mainly D-glucose | *1Oxidation product of L-sorbose by Enzymes A, A′, A″, and [A and B] was 2KGA. | *4Oxidation product of L-sorbosone by Enzymes A, A′, A″, B, and [A and B] was 2KGA. | 5.4 | 32.0 | 74.7 | 76.9 | 80.1 | 60.1 | 53.2 | 31.0 | 6.5 | 13.0 | 33.1 | 57.7 | 100.0 | 113.2 | 50.0 | 19.6 | 23.15 units/mg of purified protein | Substrate specificity ([4]; 50 mM D-Glucose): 2.4 units/mg of purified protein; Substrate specificity ([4]; 50 mM D-Mannitol): 7.1 units/mg of purified protein; Substrate specificity ([4]; 50 mM Isopropanol): 76.8 units/mg of purified protein; Substrate specificity ([4]; 50 mM n-Propanol): 139.6 units/mg of purified protein; Substrate specificity ([4]; 125 mM D-Fructose): 30.7 units/mg of purified protein; Substrate specificity ([4]; 125 mM D-Sorbitol): 14.0 units/mg of purified protein; Substrate specificity ([4]; 125 mM L-Sorbose): 47.4 units/mg of purified protein
